In the domain aggregation screens of Martell et al. (2025):

Test: soluble fraction after stress (log2 fold change); higher = more stays soluble; pooled small domains, quantitative proteomics
Settings: stress: 75 degC
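Also: 20 min heating vs room temperature control held 20 min.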

Going from “HMKLISVAVMRASDAAEIAGGTDSKTLMYRAGLGLFQSWDWHGKIDIVTGSGNNAGDGYVLALLL” to “HMKLNKRQYAYQVIRSRILDGTYVPGQRIIIDQIAKEVNSSHIPVREAIHQLESEQLIDYEPNIGAIVKG”, the “soluble fraction (log2)” value falls from 0.14 to -0.242.

Going from “HMKLSALRDKIKEHLLRQIQNGELQVGKTINLAALSRVTGISVTPIREALTQLEQAQVIQAVPNRGFVVA” to “HMKLSIGGTIEKLRRNKGLSHQQLANALGVTPDTVEKWEINAAYPDITLLSPIARLLGTTLDALLMF”, the “soluble fraction (log2)” value falls from -0.418 to -1.77.

Compared with “HMKLSKLTKPELDEIFRNANFTEEEEKVFWLLARGKSLEQISAKTFLPIATVNRRVKSIKDKIG”, “HMKLTKPKLIQLIHIAKSKLNMDELSYRVLLDNLTGKTSTTKMTVGELLKVYESMKDKGFKPQV” is lower in “soluble fraction (log2)” value: -0.436 for the first, -0.993 for the second.

First: HMKLTTRQTEIINIVKAEQPISGEKIAQNLGLSRATLRNDLSILTMTGLLDAKPKVGYFYTGQ
Second: HMKLVESALSILEEAVDRDFHGNLGDAARYFDIPYQTIYSWLKSRKRVPSLRALEPVLEKLGVSFTT
The “soluble fraction (log2)” value of the first is higher: -0.976 for the first, -2.01 for the second.

Going from “HMKLVTIPNVIGKTKEDAMKTLKDLGVTVTVETKESEKDDGTVIAQSKAEGTKLTAGENVTITVSKKKK” to “HMKMATITKRTNPSGAVVYRAQVRVKREGYPPYSESRTFSKKSLATEWAKRREFEIETNPDLLFN”, the “soluble fraction (log2)” value falls from no less than 1.04 to -1.76.

Compared with “HMKMLEINDNDSVGLKNLKTQYNHNQKVIENFQLEINKVINDGELPDKYLLDGMEKYQKLNMQIMSTIEKQ”, “HMKMPNGYGSVYKLSGNRRKPWAARVTDGWVNDTKTKKSKQKYKFIGFYETRKEALLALADYNANP” is lower in “soluble fraction (log2)” value: 0.0503 for the first, -2.05 for the second.

Compared with “HMKMSLKENLLELLQKSSGEFLSGERAAETLGVSRTAVWKAVTSLKNEGYNIESVTNRGYRFS”, “HMKNANGYGSITKLKGNRRKPYMVRITVGRDENGFPIRKVLGYYSSKANAVAALSDYNREPYDI” is lower in “soluble fraction (log2)” value: -0.34 for the first, -1.78 for the second.

Going from “HMKNENSLLVSRLAEEKIINRAKLVLMEYLKLSEPQAHRYIEKQAMDLQISRAEVAARVLETYE” to “HMKNEVENLSYMINRIIEYRDLNNLSNKNLANKIGISEALLSYILNGRRKLSKEIQRKIALFLLND”, the “soluble fraction (log2)” value falls from -1.35 to -1.99.

Going from “HMKNFAPVWGEEGAEFGKEVDTGFRLRIVEKEKDVNDLFEVIQKHTIQSQWKPGSTGTESIYKRI” to “HMKNHIEERRKARGMTQQQLASELGVSRQTIISLENGKYNPSILLAHSIARLFGERIEDIFILR”, the “soluble fraction (log2)” value falls from 0.886 to -2.45.

First: HMKNINTNIGKNLKRIRKLRGLTIDALATSSGVSKSMISEIERGIRNPSITIIWSLANALKTPLNYFLKE
Second: HMKNKFYEEFSDYIFKHTGIHYAEANYYQLDARINKLMKFLETSDENDVLKAIQGGAVKDQRVHQMIVDLA
The “soluble fraction (log2)” value of the first is higher: -1.46 for the first, -2.16 for the second.

First: HMKNKRERLGIISEILRMQVIGSQEELLDILRAKGYDVTQATLSRDLKVLKVAKTPLSNGAYKYVLPPQ
Second: HMKNLSQAEFMYLFKILAFGSTDPDNHPEMAATGMEIAKMLQGLLLSGNVLADILRKNQNVQFWL
The “soluble fraction (log2)” value of the first is lower: -1.39 for the first, 0.0572 for the second.

“HMKNNITFSEFLHEVDNGRVIKVNIQGNNITGILADGKSFNTYTPNDPSLIEKLTSKGVSISATPI” and “HMKNNLKGSPIIIAGGYGVGSKENFNLLFDLAKVLNAEVGASRAAVDAGFVEHDRQIGQTGVTVRP” are within 0.2 log units of each other in “soluble fraction (log2)” value: 0.13 for the first, 0.143 for the second.

Going from “HMKNNYQYIVDQIKQLILDGELIVGDRLPSERDLSEMYQVSRASVREALKALETIGLLESRHGGGNYIVNH” to “HMKNQIGFKIKNARRKASISQADLSAKLGISSSYLNLIESGKRNVNVDLLLKVSDVLNIELKDLSK”, the “soluble fraction (log2)” value falls from -1.28 to -2.06.

First: HMKNTYTVVSGDTLWGIASRKLGGGSNWTKIYDANAATIESVANRRRGGRGSDHGHWIYPGTVLTI
Second: HMKNYYRILGLNIDAEYEEIKAAYRILAQRHHPDKGGAAAEFRLIQEAYDILSNPLTKRNYDADLLATLN
The “soluble fraction (log2)” value of the first is higher: -0.298 for the first, -2.65 for the second.

Going from “HMKPDMAVIVGSRTLTFATTTDRQILVLRTDGTMVNRLSMKAGETRTITLPAGVYIVNGKKIIV” to “HMKPFSLESYKAFVVKRLGLFPETSSAQMHDWLKEEYPDFPLITPRTVYNFVMKIRQDYGIAKV”, the “soluble fraction (log2)” value falls from -2.35 to -3.43.

Going from “HMKPFVVVPIDQVRVGMFIQLDLGWMQHPFPVGSFRVASEAQIDTLRSLDLESVRYLPAKSDPAFQQP” to “HMKPGNFILDLLRTYGQKGTSAQNLMSSSRMFNFSENLIRVTLSRLAARGLIENFERGHYRLAE”, the “soluble fraction (log2)” value rises from -2.82 to -0.488.

First: HMKPGTIVTGVVVDIKSDVVVVNAGLKSEGIVPIEQFRNDRGELEVAIGDEVKVALDSLENGFGETVLSRE
Second: HMKPQKRYLFEEVLTFLKHNSEKSFNYKQLGAAMEISNESDRFTLLETLEELKHQGFVVEKEIGKYQAKE
The “soluble fraction (log2)” value of the first is higher: -0.435 for the first, -1.25 for the second.

Going from “HMKPRVTVVTLGVDDLERAVRFYAEGLGFPTEGIVGREFEFGAVAFFDMQPGLRLALWPRRSLAHDSGLP” to “HMKPSISKIYALWGVLQRSGKIKSQDKAALDAFVRKYTGVDHVKWLDESQARKIIEILKQMIA”, the “soluble fraction (log2)” value falls from -0.373 to -1.55.

First: HMKPSKTDEAEYWLMERLEEGPQPAGDLIRIGEEFGYTPKILRDAGERFNMERYKDGLDHWMWKLPN
Second: HMKPVTNHTVKFYVDDVLWKTVTVKHGGNVRLADLPMSDGKTFVGWSESVVNVTKDLTVFALFS
The “soluble fraction (log2)” value of the first is higher: -0.154 for the first, -1.96 for the second.
